B1: AK19 Fab (Fab, V domains shown)
VH: QVQLQESGPGLVKPSETLSLTCTVSGFSLTSYGVSWIRQPPGKGLEWIGVIWHDGSTSYHSTLISRVTISRDTSKNQVSLKLSSVTAADTAVYYCASDGYSGTFAYWGQGTLVTVSS
VL: QIVVTQSPATLSLSPGERATLSCTASSSVSSSYLHWYQQKPGQAPRLLIYSTSILASGIPARFSGSGSGTDFTLTISSLQPEDFAVYYCHQYHRSPYTFGQGTKLEIK
B2: AK20 Fab (Fab, V domains shown)
VH: B1 VH with S61P, T62S, I64K
VL: B1 VL
B3: AK21 Fab (Fab, V domains shown)
VH: B1 VH with T30S, S58N, H60N, S61P, T62S, I64K
VL: B1 VL
B4: AK04 Reference Fab (Fab, V domains shown)
VH: QVQLKESGPGLVAPSQSLSITCTVSGFSLTSYGVSWVRKPPGKGLEWLGVIWHDGSTSYHSTLISRLNISRDNSKSQVFLKLNSLQTDDTATYYCASDGYSGTFAYWGQGTLVTVSA
VL: QIVVTQSPAIMSASLGERVTMTCTASSSVSSSYLHWYQQKPGSSPKLWIYSTSILASGVPARFSGSGSGTSYSLTVSSMEAEDAATYYCHQYHRSPYTFGGGSKLEIR
B5: AK11 (antibody, V domains shown)
VH: EVMLVESGGGLVKPGGSLKLSCAASGFSFSTYVMSWVRQTPEKRLEWVASISGGGSNTYYPDSVKGRFTISRDNAKNTLYLQMSSLRSEDTALYYCARREVVVYWYFDVWGTGTTVTVSS
VL: DIQMTQSPASLSVSVGETVTITCRASENIYSNLAWYQQKQGKSPQLLVFSAKNLADGVPSRFGGSGSGTQYSLKINSLQSEDFGTYYCQHFWGTPLTFGAGTKLELK
notes: also called anti-Siglec-6 mAb AK11
B6: AK10 (antibody, V domains shown)
VH: EVQLQQSGPELMKPGASVKISCKASGYTFTDYYMNWVKQSHGKSLEWIGDINPKIGDTIYNQKFKGKATLTVDKSSSTAYMELRSLTSEDSAVYYCARWDYYGSSLFDYWGQGTTLTVSS
VL: DIVMTQSHKFMSTSVGDRVSITCKASQDVTTAVAWYQQKPGQSPKLLIYWASTRHTGVPDRFTGTGSGTDYTLTISNVQAEDLALYYCQQHYSTPYTFGGGTKLEIK
notes: also called anti-Siglec-6 mAb AK10
B7: AK15 (antibody, V domains shown)
VH: QVQLKESGPGLVAPSQSLSITCTVSGFSLTSYGVSWVRQPPGKGLEWLGIIWGDGSTNYHSALISRLSISKDKSKSQVFLKLNSLQADDTATYYCAKGLSDWYFDVWGTGTTVTVSS
VL: QIVLSQSPAILSASPGEKVTMTCRASSSVSYMHWYQQKPGSSPKPWIYATSNLASGVPARFSGSGSGTSYSLTISRVEAEDAATYYCQQWSSNPYTFGGGTKLEIK
notes: also called anti-Siglec-6 mAb AK15
B8: AK12 (antibody, V domains shown)
VH: QVQLKQSGPGLVQPSQSLSITCTVSGFSLTSYGVHWVRQSPGKGLEWLGVIWGGGSTDYNAGFISRLSISKDNSKSQVFFKMNSLQADDTAIYYCARALSDWYFDVWGTGTTVTVSS
VL: B7 VL with Y95L, G99A, I105L
notes: also called anti-Siglec-6 mAb AK12
B9: AK08 (antibody, V domains shown)
VH: B7 VH with S35N, V37I, I50V, K73N, A87T, G98A
VL: B7 VL
notes: also called anti-Siglec-6 mAb AK08
B10: AK14 (antibody, V domains shown)
VH: QIQLVQSGPELKKPGETVKISCKASGYTFTTYGMSWVKQAPGKGLKWMGWINTYSGVPTYADDFKGRFAFSLETSATTAYLQINNLKNEDTATYFCARLAYFGYYFDFWGQGTTLTVSS
VL: DIVMTQSQKFMSTTVGDRVSFTCKASQNVGSAVAWYQQKPGQSPKLLIYSASNRYTGVPDRFTGSGSGTDFTLTISNMQSEDLADYFCQQYSSYPYTFGGGTKLEIK
notes: also called anti-Siglec-6 mAb AK14
B11: AK09 (antibody, V domains shown)
VH: B10 VH with F29L, D63E, T77S, A100G, F102Y, F108Y
VL: DVVLTQSPATLSVTPGDSVSLSCRASQSIRNNLHWYQQKSHESPRLLIKYIFQSISGIPSRFSGSGSGTEFTLSINSVETEDFGMYFCQQSDSWPHVTFGAGTKLELI
notes: also called anti-Siglec-6 mAb AK09
B12: AK13 (antibody, V domains shown)
VH: B10 VH
VL: B10 VL with A34T
notes: also called anti-Siglec-6 mAb AK13
B13: AK05 (antibody, V domains shown)
VH: QVQLQQPGTELVKPGASVQLSCKASGYIFTSYWMYWVKQRPGQGLEWIGNVNPYSGDTNYNEKFKTKATLTVDKASSTAFIQLSGLTSEDSAVYFCARGDGLYYYAMDYWGQGTSVTVSS
VL: DIKMTQSPSSMYASLGERVTITCKASQDINSYLTWFQQKPGKSPKTLIYRASRLVDGVPSRFSGSGSGQDYSLTISSLEYEDMGIYYCLQYDEFPLTFGAGAKLELI
notes: also called anti-Siglec-6 mAb AK05
B14: AK06 (antibody, V domains shown)
VH: EVPLVESGGGLVKPGGSLKLSCAASGFTFSDYGIHWVRQAPEKGLEWVAYITSVSSTIYYADTVKGRFTISRDNAKNTLFLQMTSLRSEDTAMYYCAILDWYFDVWGTGTTVTVSS
VL: QIVLTQSPAIMSASPGEKVTMTCSANSSVSFMHWFQQKSGTSPKRWIYDTSKLASGVPARFSASGSGTSYSLTISSMEAEDAATYYCQQWSSNPLTFGAGTKVELK
notes: also called anti-Siglec-6 mAb AK06
B15: AK07 (antibody, V domains shown)
VH: EVQLQQSGPELVKPGASVKMSCKASGYTFTDYKMHWVKQSHGKSLEWIGNINPNNGGTSYNQKFKGKATLTVNKSSSTAYMELRSLTSEDSAVYYCARRYYGSSSSYFDYWGQGTTLTVSS
VL: B14 VL with A25V, N26S, F31Y, F35Y, A63G, L95P, V103L
notes: also called anti-Siglec-6 mAb AK07
B16: AK04 (antibody, V domains shown)
VH: B4 VH
VL: B4 VL
notes: also called anti-Siglec-6 mAb AK04; AK04 IgG1
B17: AK02 (antibody, V domains shown)
VH: QVQLQQPGAELVKPGASVKLSCKASGYTFTNYYIHWVKQRPGQGLEWIGMIHPISGSTNYNEKLKIKATLTVDKSSSTAYMQLSSLTSEDSAVYYCARRYYGSSYWYFDVWGTGTTVTVSS
VL: B7 VL with H33N, S69P, N93H, Y95P, G99S
notes: also called anti-Siglec-6 mAb AK02
B18: AK03 (antibody, V domains shown)
VH: EVQLQQSGTVLARPGASVKMSCKTSGYTFTSYWMHWVKQRPGQGLEWIGTIYPGNSDSTYNQKFKGKAKLTAVTSASTAYMEVSSLTNEDSAVYYCSREGTVVANYYGLDYWGQGTSVTVSS
VL: B7 VL with M32I, N93K, Y95P, G99A, I105L
notes: also called anti-Siglec-6 mAb AK03
B19: AK01 (antibody, V domains shown)
VH: QVQLKQSGPGLVQPSQSLSITCTVSGFSLTSYSVHWVRQSPGKGLEWLGVIWSGGSTDYNAVFISRLSISRDNSKSQVFFKMNSLQADDSAIYYCASYSYYTMDYWGQGTSVTVSS
VL: DVVMTQTPLSLPVSLGDQASISCRSSQSLVLDNGNTYLHWYLQKPGQSPKLLIYKVSNRFSGVPDRFTGSGSGTDFTLKINRVEAEDLGVYFCSQSTHVPFTFGSGTKLEIK
notes: also called anti-Siglec-6 mAb AK01

Numbering of substitutions follows the chain as printed.

One experiment deals with Siglec-6 (antigen of Example 8) (human, UniProt O43699 27-347, limits assumed). The experiment in a line: BLI, monovalent Fab. For orientation: In BLI a coated tip is dipped into the sample, and binding shifts an interference pattern.
Siglec-6 (antigen of Example 8), sequence (O43699 27-347 limits assumed): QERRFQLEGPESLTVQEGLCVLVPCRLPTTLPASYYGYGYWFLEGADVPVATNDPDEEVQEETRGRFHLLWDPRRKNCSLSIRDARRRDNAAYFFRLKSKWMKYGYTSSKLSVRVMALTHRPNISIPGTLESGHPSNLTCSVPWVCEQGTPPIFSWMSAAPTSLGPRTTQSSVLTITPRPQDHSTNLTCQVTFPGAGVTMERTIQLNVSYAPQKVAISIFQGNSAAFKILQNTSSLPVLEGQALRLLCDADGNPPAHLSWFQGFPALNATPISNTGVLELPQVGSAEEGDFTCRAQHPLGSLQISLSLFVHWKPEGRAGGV
One may read the koff as the rate constant with which the complex falls apart. The low end stands for a long-lived complex, the high end for a short-lived complex. In general, kon refers to the rate constant with which the complex forms. Read a high kon as fast association. For the molecule B1, the Kd turned out to be 0.032 nM, the koff stood at 2.6e-05 s⁻¹ and the kon amounted to 830000 M⁻¹ s⁻¹.
For B2 the same measures were 0.12 nM, 9.1e-05 s⁻¹ and 750000 M⁻¹ s⁻¹.
For B3 the same measures were 0.04 nM, 3.7e-05 s⁻¹ and 920000 M⁻¹ s⁻¹.
B4 gave a Kd of 0.075 nM, a koff of 6.5e-05 s⁻¹ and a kon of 860000 M⁻¹ s⁻¹.

The next experiment deals with T1, Siglec-6 domain 1 fused to a human Fc (human, UniProt O43699 27-147).
T1 construct: also called domain 1 fusion protein; not shown: human Fc
T1 sequence (O43699 27-147 limits assumed): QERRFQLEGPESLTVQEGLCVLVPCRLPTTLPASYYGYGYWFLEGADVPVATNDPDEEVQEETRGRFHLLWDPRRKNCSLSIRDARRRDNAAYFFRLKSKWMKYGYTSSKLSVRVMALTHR
The experiment in a line: ELISA on Siglec-6 domain-human Fc fusions (Domain Mapping = 2). The protocol: (§1) Domain mapping was assessed by ELISA using recombinantly expressed Siglec-6 extracellular domains fused to a human Fc containing the full ECD, domains 1 and 2, or domain 1. Siglec-6 mAbs were tested for binding to each of these domain fusion proteins and assigned domains based on their specific binding properties. Siglec-6 mAbs that bound to all three fusion proteins were assigned domain 1 binders, mAbs that bound to full ECD and domains 1 and 2 were assigned domain 2 binders, and mAbs that bound to only the full ECD protein were assigned domain 3 binders.
On the technique in general: ELISA stands for enzyme-linked immunosorbent assay.
For the molecule B5, the binding result is given as “no binding”.
Still for that read-out and setting: the same measure for B6: “no binding”.

For a further experiment, the target named is T2, Siglec-6 domains 1 and 2 fused to a human Fc (human, UniProt O43699 27-237).
T2 construct: also called domains 1 and 2 fusion protein; not shown: human Fc
T2 sequence (O43699 27-237 limits assumed): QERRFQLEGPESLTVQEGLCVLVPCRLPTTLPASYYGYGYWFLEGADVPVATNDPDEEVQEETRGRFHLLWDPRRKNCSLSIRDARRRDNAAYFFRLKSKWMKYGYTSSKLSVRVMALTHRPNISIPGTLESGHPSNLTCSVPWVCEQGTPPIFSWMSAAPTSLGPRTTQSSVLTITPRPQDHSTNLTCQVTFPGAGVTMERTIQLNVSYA
The experiment in a line: ELISA on Siglec-6 domain-human Fc fusions (Domain Mapping = 3). The protocol: as §1
B7: the binding result was “no binding”.
With B8, the binding result is “no binding”.
With B9, the binding result is “no binding”.
Same read-out and setting: the same measure for B10: “no binding”; for B11: “no binding”.
On the same count and under the same terms, with B12 the entry was “no binding”.

The target in a further experiment is T1, Siglec-6 domain 1 fused to a human Fc. The description is as above. As to the method: as §1
For B7, the binding result is on record as “no binding”.
Consider B8, for which the binding result is reported as “no binding”.
For the molecule B9, the binding result was “no binding”.
The same measure, in the same setting: with B10 the entry was “no binding”; with B11, “no binding”.
With B12, the binding result is “no binding”.

For another experiment, the target named is T3, Siglec-6 ECD Fc protein (human, UniProt O43699 27-347).
T3 construct: also called Siglec-6 full ECD fused to a human Fc; not shown: human Fc
T3 sequence (O43699 27-347): as the sequence (O43699 27-347 limits assumed) above
The experiment in a line: BLI (Octet Red 384), bivalent IgG on immobilized Siglec-6 ECD Fc. As to the method:
Bivalent binding affinities of IgG for Siglec-6 mAbs were measured by biolayer interferometry using a FortéBio Octet Red 384 instrument using immobilized Siglec-6 ECD Fc protein.
For the molecule R&D MAB2859 (antibody), the Kd turned out to be 0.009 nM.
Take B13: the Kd was determined as 0.055 nM.
On the same count and under the same terms, with B14 the figure was 0.024 nM; with B15, 0.069 nM.
Take B5: the Kd stood at 0.002 nM.
Molecule B16 came in with a Kd of 0.001 nM.
In turn, B7 showed a Kd of 1.04 nM.
Regarding B8, the Kd was found to be 0.087 nM.
On the same count and under the same terms, the same measure for B17: 0.007 nM; for B18: 0.001 nM.
Still for that read-out and setting: the same measure for B9: 0.261 nM; for B19: 0.001 nM; for B6: 0.084 nM.
Consider B10, for which the Kd amounted to 0.072 nM.
As to B11, the Kd came to 0.11 nM.
Consider B12, for which the Kd was determined as 0.063 nM.

The values are drawn from US20240084005A1 (ALLAKOS, published 2024).
